Test results taken from patent US20190309092A1.

Biological target: TNFα (UniProt P01375)
Assay: SPR, Biacore T100, single-cycle kinetics, 1:1 Langmuir fit; Target 1 column

UniProt P01375, sequence (P01375 77-233 limits assumed): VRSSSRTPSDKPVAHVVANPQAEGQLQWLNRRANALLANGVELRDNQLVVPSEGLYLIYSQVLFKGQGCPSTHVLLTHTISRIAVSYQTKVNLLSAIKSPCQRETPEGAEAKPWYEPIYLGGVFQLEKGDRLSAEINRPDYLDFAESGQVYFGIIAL

Kd: 0.0643 nM
Substance: Humira IgG(Full) (antibody)
